Results from patent publication US20240101668A1 (WUGEN, published 2024).
Residue numbers refer to the chain shown, from its start.

B1: Polypeptide No. 120 (scFv, V domains shown)
VH: QVQLVQSGAEVKKPGASVKVSCKASGYTFTTYYMHWVRQAPGQGLEWMGWMNPNSGNTGYAQKFQGRVTMTRDTSTSTVYMELSSLRSEDTAVYYCARGHKVDSGYDPYGMDVWGQGTTVTVSS
VL: DIQMTQSPSSLSASVGDRVTITCRASQSIGTYLHWYQQKPGKAPKLLIYAISTLQNGVPSRFSGSGSGTDFTLTISSLQPEDFATYYCQQSYSPPLTFGGGTKVEIKR
notes: scFv
B2: Polypeptide No. 115 (scFv, V domains shown)
VH: QVQLVQSGAEVKKPGASVKVSCKASGYTFTGYYMHWVRQAPGQGLEWMGIISPSGGSPTYAQKFQGRVTMTRDTSTSTVYMELSSLRSEDTAVYYCAREGNGGMDVWGQGTTVTVSS
VL: not shown
notes: scFv
B3: Polypeptide No. 127 (scFv, V domains shown)
VH: QVQLVQSGAEVKKPGASVKVSCKASGYTFTNHHMHWVRQAPGQGLEWMGMINPSGGSTSYAQKFQGRVTMTRDTSTSTVYMELSSLRSEDTAVYYCARGRPVDIVATYYFDYWGQGTLVTVSS
VL: DIQMTQSPSSLSASVGDRVTITCQASQDIRNFLNWYQQKPGKAPKLLIYGASTLHSGVPSRFSGSGSGTDFTLTISSLQPEDFATYYCQQSYSTPLTFGGGTKVEIKR
notes: scFv
B4: Polypeptide No. 121 (scFv, V domains shown)
VH: QVQLVQSGAEVKKPGASVKVSCKASGDSFTDYYIHWVRQAPGQGLEWMGWMNPNSGNTGYAQQFQGRVTMTRDTSTSTVYMELSSLRSEDTAVYYCARDREYSSSSRYFDLWGRGTLVTVSS
VL: DIQMTQSPSSLSASVGDRVTITCRASQNIGNWLAWYQQKPGKAPKLLIYAASTLQSGVPSRFSGSGSGTDFTLTISSLQPEDFATYYCQQSYNSITFGPGTKVDIKR
notes: scFv
B5: Polypeptide No. 124 (scFv, V domains shown)
VH: EVQLVESGGGLVKPGGSLRLSCAASGFTFSSYWMHWVRQAPGKGLEWVAVIWYDGSNKYYADSVKGRFTISRDDSKNTLYLQMNSLKTEDTAVYYCVRDGARSGMDVWGQGTTVTVSS
VL: EIVMTQSPATLSVSPGERATLSCRASQSVSTYVAWYQQKPGQAPRLLIYGASTRATGIPARFSGSGSGTEFTLTISSLQSEDFAVYYCQQYYDTPLTFGGGTKVEIKR
notes: scFv
B6: Polypeptide No. 117 (scFv, V domains shown)
VH: EVQLLESGGGLVQPGGSLRLSCAASGFTFGDYPMSWVRQAPGKGLEWVAGISYDGLNEHYADSVKGRFTISRDNSKNTLYLQMNSLRAEDTAVYYCARDRDSGPSGFQHWGQGTLVTVSS
VL: DIQMTQSPSSLSASVGDRVTITCRASQTIGTWLAWYQQKPGKAPKLLIYDASSLESGVPSRFSGSGSGTDFTLTISSLQPEDFATYYCQQSYSTPPTFGQGTKVEIKR
notes: scFv
B7: Polypeptide No. 116 (scFv, V domains shown)
VH: EVQLLESGGGLVQPGGSLRLSCAASGFTFSNYAMAWVRQAPGKGLEWVSAISGSGGGTYYADSVKGRFTISRDNSKNTLYLQMNSLRAEDTAVYYCAREGGYDPDYYYYGMDVWGQGTTVTVSS
VL: DIQMTQSPSSLSASVGDRVTITCRASQSISSYLNWYQQKPGKAPKLLIYATSRLQSGVPSRFSGSGSGTDFTLTISSLQPEDFATYYCQQGFNFPPTFGGGTKVEIKR
notes: scFv
B8: Polypeptide No. 123 (scFv, V domains shown)
VH: EVQLLESGGGLVQPGGSLRLSCAASGFILGNAWMHWVRQAPGKGLEWVASVSGDGSDENYADSVKGRFTISRDNSKNTLYLQMNSLRAEDTAVYYCARDTHDYGDYAPFDYWGQGTLVTVSS
VL: B3 VL with R30N, F32Y, G50A, T53N, H55Q, S91T, T94F
notes: scFv
B9: Polypeptide No. 126 (scFv, V domains shown)
VH: EVQLLESGGGLVQPGGSLRLSCAASGFTFTTYDMHWVRQAPGKGLEWVAGINWNSVIIDYADSVKGRFTISRDNSKNTLYLQMNSLRAEDTAVYYCAKDLLYYYDSIGAFDIWGQGTMVTVSS
VL: B1 VL with G30S, Y32W, H34A, I51A, T53S, N56S, Y92D, S93T, P94L
notes: scFv
B10: Polypeptide No. 125 (scFv, V domains shown)
VH: QVQLVQSGAEVKKPGASVKVSCKASGYSFTTYDIHWVRQAPGQGLEWMGWMNPNSGNTGYAQKFQGRVTMTRDTSTSTVYMELSSLRSEDTAVYYCATDHWVLGGFDYWGQGTLVTVSS
VL: DIQMTQSPSSLSASVGDRVTITCQASQDISNYLNWYQQKPGKAPKLLIYAASTLQSGVPSRFSGSGSGTDFTLTISSLQPEDFATYYCQQYSYLPVTFGQGTKLEIKR
notes: scFv
B11: Polypeptide No. 119 (scFv, V domains shown)
VH: QVQLVQSGAEVKKPGASVKVSCKASGNTLTNDHIHWVRQAPGQGLEWMGWMNPNSGDTGYAQKFQGRVTMTRDTSTSTVYMELSSLRSEDTAVYYCARAGVDTAMVTYYYYGMDVWGQGTTVTVSS
VL: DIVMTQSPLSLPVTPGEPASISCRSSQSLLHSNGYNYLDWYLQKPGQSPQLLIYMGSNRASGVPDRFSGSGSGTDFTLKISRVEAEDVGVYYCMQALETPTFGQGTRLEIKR
notes: scFv
B12: Polypeptide No. 118 (scFv, V domains shown)
VH: EVQLVESGGGLVKPGGSLRLSCAASGFTISNAWMSWVRQAPGKGLEWVAHIWNDGSQKYYADSVKGRFTISRDDSKNTLYLQMNSLKTEDTAVYYCARDGALGVGPDDYWGQGTLVTVSS
VL: DIVMTQSPLSLPVTPGEPASISCRSSQSLLHSNGYNYLDWYLQKPGQSPQLLIYAASSLQSGVPDRFSGSGSGTDFTLKISRVEAEDVGVYYCMQGLQTPHTFGGGTKVEIKR
notes: scFv
B13: Polypeptide No. 122 (scFv, V domains shown)
VH: QVQLVQSGAEVKKPGASVKVSCKASGYTFTDYWLHWVRQAPGQGLEWMGTINPSGGSTSYSHKFQGRVTMTRDTSTSTVYMELSSLRSEDTAVYYCAKEEEGFWSGYAFDYWGQGTLVTVSS
VL: not shown
notes: scFv

Each binder was assayed against T1, huCD33-G69-Fc recombinant protein (human, UniProt P20138 18-259) (assay: BLI).
T1 construct: extracellular domain; also called CD33 R69G
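Throughout, for result: biolayer interferometry: scFvs captured from periplasmic extracts on anti-V5-loaded streptavidin biosensors, antigen association for 2 min, buffer dissociation for 5 min, 1:1 Langmuir fit giving off-rate.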
Method: Discovered scFvs were analyzed for binding to huCD33-R69-His or huCD33-G69-Fc recombinant proteins (for anti-CD33 scFvs; for CLL-1 scFvs, huCLL1-K244-Avi-Tev-His or huCLL1-Q244-Avi-Tev-His were used; for FLT3, huFLT3-T227-His or huFLT3-M227-Fc were used) using BLI on a ForteBio Octet HTX instrument. Streptavidin-coated biosensors were loaded with biotinylated anti-V5 tag monoclonal antibody for 5 min and were then quenched and blocked with 20 μM amine-PEG2-Biotin for 5 min. scFvs were captured on biosensors from scFv clone periplasmic extracts. huCD33 (or huCLL-1, or huFLT3) proteins were then associated with the captured scFvs for 2 minutes, followed by dissociation with buffer (1×HBST [10 mM HEPES pH 7.4, 150 mM NaCl, 0.05% Tween-20], 1 g/L BSA) for 5 minutes. […] Data was fitted with 1:1 Langmuir equation and off-rate values were reported.

T1 sequence (P20138 18-259 R69G): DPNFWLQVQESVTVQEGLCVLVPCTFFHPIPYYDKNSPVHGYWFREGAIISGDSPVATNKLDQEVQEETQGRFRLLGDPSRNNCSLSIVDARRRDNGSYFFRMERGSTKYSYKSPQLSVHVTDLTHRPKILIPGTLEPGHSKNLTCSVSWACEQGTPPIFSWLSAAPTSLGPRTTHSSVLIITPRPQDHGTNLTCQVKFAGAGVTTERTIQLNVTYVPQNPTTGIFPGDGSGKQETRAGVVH

| Binder | binding result |
| --- | --- |
| B1 | binds |
| B2 | binds |
| B3 | binds |
| B4 | binds |
| B5 | binds |
| B6 | binds |
| B7 | binds |
| B8 | binds |
| B9 | binds |
| B10 | binds |
| B11 | binds |
| B12 | binds |
| B13 | binds |

What follows are binders tested against T2, huCD33-R69 stably expressed on Jurkat cells (human, UniProt P20138 18-364) (assay: FACS on cells;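 note: fixed Jurkat lines probed with myc-tagged scFv periplasmic extracts, anti-myc PE flow cytometry, PE MFI fold binned − <2, + 2–10, ++ 10–30, +++ >30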).
T2 construct: whole, on cells; >200,000 receptors per cell; also called CD33 WT; CD33^ARG69
T2 sequence (P20138 18-364): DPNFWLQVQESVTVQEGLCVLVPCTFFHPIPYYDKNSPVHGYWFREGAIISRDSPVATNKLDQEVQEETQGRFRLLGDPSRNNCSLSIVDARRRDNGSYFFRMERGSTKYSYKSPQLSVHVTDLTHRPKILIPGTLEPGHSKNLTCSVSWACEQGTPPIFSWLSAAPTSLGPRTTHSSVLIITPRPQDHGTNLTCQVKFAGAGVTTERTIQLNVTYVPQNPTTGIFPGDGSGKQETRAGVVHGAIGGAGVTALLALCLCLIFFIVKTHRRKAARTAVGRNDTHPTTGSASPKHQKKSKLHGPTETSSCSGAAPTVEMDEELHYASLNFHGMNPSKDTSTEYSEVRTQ
Method: (§1) Jurkat cells were engineered to stably express either the huCD33-R69 or huCD33-G69 variant at >200,000 receptors per cell. Parental, huCD33-R69, and huCD33-G69 Jurkat cell lines were stained with differing levels of CellTrace Violet Cell Proliferation Kit (ThermoFisher, cat. #C34557) to barcode each cell line. Barcoded Jurkat cell lines were fixed with paraformaldehyde and incubated with myc-labeled scFv periplasmic extracts and a secondary anti-myc PE-conjugated monoclonal antibody. Appropriate positive and negative controls were used. Stained cells were analyzed by flow cytometry (CytoFLEX, Beckman Coulter, Inc.) and binding was assessed by change in PE mean fluorescence intensity (MFI) of the barcoded cell populations.
(§2) Data is disclosed below in Table 16c, reporting FACS fold change over parental as (−), indicating <2 fold; (+), indicating 2-10 fold; (++), indicating 10-30 fold; and (+++), indicating >30 fold.

| Binder | FACS geometric mean fold change over Jurkat parental [fold] |
| --- | --- |
| B1 | > 30 |
| B2 | 10 to 30 |
| B3 | 10 to 30 |
| B4 | 10 to 30 |
| B5 | > 30 |
| B6 | 2 to 10 |
| B7 | > 30 |
| B8 | > 30 |
| B9 | > 30 |
| B10 | > 30 |
| B11 | 10 to 30 |
| B12 | 10 to 30 |
| B13 | 10 to 30 |

What follows are binders tested against T3, huCD33-G69 stably expressed on Jurkat cells (human, UniProt P20138 18-364) (assay: FACS on cells;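 note: fixed Jurkat lines probed with myc-tagged scFv periplasmic extracts, anti-myc PE flow cytometry, PE MFI fold binned − <2, + 2–10, ++ 10–30, +++ >30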).
T3 construct: whole, on cells; >200,000 receptors per cell; also called CD33 Mutant; CD33 R69G
T3 sequence (P20138 18-364 R69G): as the sequence (P20138 18-364) above, with R52G counted along it
Method: as §1, §2

| Binder | FACS geometric mean fold change over Jurkat parental [fold] |
| --- | --- |
| B1 | > 30 |
| B2 | 10 to 30 |
| B3 | 10 to 30 |
| B4 | 10 to 30 |
| B5 | > 30 |
| B6 | 2 to 10 |
| B7 | > 30 |
| B8 | > 30 |
| B9 | 10 to 30 |
| B10 | > 30 |
| B11 | > 30 |
| B12 | 2 to 10 |
| B13 | > 30 |
